Laboratory results: PMC4022735, “Structural and Biochemical Characterization Reveals LysGH15 as an Unprecedented “EF-Hand-Like” Calcium-Binding Phage Lysin” (PLoS Pathogens, 2014)

Target: T1, LysGH15 SH3b domain (residues 368–495) (staphylococcal phage GH15, 15N (and/or 13C) labelled for NMR; N-terminal SNA tag remnant omitted (PDB 2MK5 entity residues 4-131 = 368-495))
T1 chain: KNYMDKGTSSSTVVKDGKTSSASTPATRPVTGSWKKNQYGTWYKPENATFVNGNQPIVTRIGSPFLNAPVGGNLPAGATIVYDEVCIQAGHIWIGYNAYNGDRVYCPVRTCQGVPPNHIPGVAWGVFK
Assay: NMR titration; 1H-15N HSQC spectra of 15N-labelled SH3b on addition of the peptide (100 mM stock in the buffer of the SH3b sample); 298 K; KD from a fit of the chemical shift perturbations; fast exchange
Conditions: both partners purified

B1: peptide “AGGGGG” (peptide)
peptide: AGGGGG
notes: synthetic peptide used as previously reported for the SH3b domain of ALE-1; Not a stretch of a named natural protein; also called the peptide; source: synthetic peptide (Sangon Biotech (Shanghai) Co., Ltd.)
Kd: ~3000 µM
